Holding throughout (assay): IEDB peptide-MHC binding, purified MHC/competitive/radioactivity; ≥ and ≤ were set here for values at or beyond the usual limits of such assays
Holding throughout (settings): source organism: Bordetella pertussis

The target in test [1] is HLA-B*44:03.
The target in test [2] is HLA-B*07:02.
Test [3] concerns the target HLA-B*53:01.
In test [4] the target is HLA-B*57:01.

Where only a bound is given, the exact number is not on record here.

For the sequence AQGKALLYR, the 50% inhibitory concentration (IC50) in test [1] is at least 70.1 µM.

Turning to GATRAVDSL, the concentration for half-maximal inhibition (IC50) in test [2] was 69.6 µM. Consider MHTIASILL, for which, in test [3], the 50% inhibitory concentration (IC50) amounted to 7.4 µM.

Take PASANTLLL: the IC50 in test [2] stood at 15.7 µM.

For the sequence RASASRARI, the IC50 in test [4] was at least 70.4 µM.

With RVAPPAVAL, the half-maximal inhibitory concentration (IC50) in test [2] turned out to be 0.349 µM. For the sequence SGEGRVNIG, the IC50 in test [3] was found to be 3.18 µM. Same read-out and setting: next, VVETAQPLP: 69.9 µM. For WTFHAGYRY, the IC50 in test [4] amounted to 1.4 µM.

Source of the values: the Immune Epitope Database (IEDB).
